# Experimental data taken from US20140161821A1, “TREATMENT WITH ANTI-PCSK9 ANTIBODIES” (PFIZER INC., priority 2011, published 2014).
# Like-named read-outs stand apart in the source and are kept apart here.
# B1: L1L3: humanized (<5% murine residues) monoclonal PCSK9 antagonist antibody that binds to secreted PCSK9; VH SEQ ID NO: 11, VL SEQ ID NO: 12 (antibody, V domains shown)
# VH: QVQLVQSGAEVKKPGASVKVSCKASGYTFTSYYMHWVRQAPGQGLEWMGEISPFGGRTNYNEKFKSRVTMTRDTSTSTVYMELSSLRSEDTAVYYCARERPLYASDLWGQGTTVTVSS
# VL: DIQMTQSPSSLSASVGDRVTITCRASQGISSALAWYQQKPGKAPKLLIYSASYRYTGVPSRFSGSGSGTDFTFTISSLQPEDIATYYCQQRYSLWRTFGQGTKLEIK
# modifications: heavy chain variable region; light chain variable region
# How the values were obtained:
# [1] = Protocol: Subjects were seen periodically in the clinic for safety assessments and collection of blood for safety labs, lipid profiles, PK, PD, and immunogenicity samples. Telephone contacts were made prior to each visit to remind them of the 10-hour fasting requirements, during screening and on Day 3 to assess adverse events and document the contact in the subject's source document. […] Infusions were administered as a single infusion over approximately 60 minutes.
# [2] = Example 3 clinical study, single IV dose on stable atorvastatin: L1L3 pharmacokinetics; conditions: geometric mean
# Protocol: Infusion rates were carefully controlled by an infusion device per protocol. Atorvastatin (40 mg daily) was administered as described below in the study protocol. Subjects self-administered atorvastatin during their participation in this study except from Days 1 through 7 during their confinement to the clinic where the same dose was administered by qualified site personnel.
# The subjects returned to the clinical research unit for subsequent visits.
# In the study, the incidence of subjects meeting toxicity or intolerable dose criteria was measured. Incidence of treatment emergent adverse events (TEAEs) categorized by severity and causal relationship to study drug was also be measured. The timeframe for measurement of each of the above outcomes was two months.
# Dose Administration: subjects took sponsor-provided atorvastatin (40 mg). […] Subjects fasted at least 10 hours prior to the lipid panel blood sample on Days 5 and 6.
# [3] = Example 2 clinical study, single escalating IV doses: pharmacokinetics (NCA); type: in vivo, human
# Protocol: The subjects, investigator, and site personnel (except site personnel responsible for drug preparation) were blinded to treatment assignments, as was the CRO designee; while the Sponsor clinical research team was unblinded. The study was conducted in 6 planned cohorts of 8 subjects per cohort in an effort to seek a maximum tolerated dose or MTD (total of approximately 48 subjects). […] Doses were administered following an overnight fast as an intravenous infusion over 60 minutes. […] Infusions will be administered as a single infusion over 60 minutes. […]
# Drug was prepared by qualified unblinded site personnel and dispensed in a blinded fashion to the patient and immediate study staff.
# In addition, single PK samples were obtained on Days 4, 7, 14, 21, 28 and additional PK follow-up visit (if applicable). One sample was drawn at each time point.
molecule,measurement,setting,value
B1,Cmax,"[1]; 0.25 mg/kg, after 1st dose",10.9 ± 13.0 µg/mL
same,Ctrough,"[1]; 0.25 mg/kg, after 1st dose",0.109 ± 0.406 µg/mL
same,Ctrough,"[1]; 3 mg/kg, after 3rd dose",3.04 ± 4.42 µg/mL
same,Ctrough,"[1]; 6 mg/kg, after 3rd dose",15.6 ± 15.3 µg/mL
same,AUCinf,[2]; 0.5 mg/kg L1L3 + atorvastatin,46338 ng·days/mL
same,AUCt,[2]; 0.5 mg/kg L1L3 + atorvastatin,38310 ng·days/mL
same,CL,[2]; 0.5 mg/kg L1L3 + atorvastatin,10.8 mL/day/kg
same,Cmax,[2]; 0.5 mg/kg L1L3 + atorvastatin,13.827 µg/mL
same,Vss,[2]; 0.5 mg/kg L1L3 + atorvastatin,0.0402 L/kg
same,AUCinf,[2]; 4 mg/kg L1L3 + atorvastatin,777167 ng·days/mL
same,AUCt,[2]; 4 mg/kg L1L3 + atorvastatin,726337 ng·days/mL
same,CL,[2]; 4 mg/kg L1L3 + atorvastatin,5.2 mL/day/kg
same,Cmax,[2]; 4 mg/kg L1L3 + atorvastatin,105.048 µg/mL
same,Vss,[2]; 4 mg/kg L1L3 + atorvastatin,0.0523 L/kg
same,AUC(0-∞),"[3]; single IV 0.3 mg/kg, mean",34997.88 ng·days/mL
same,Cl,"[3]; single IV 0.3 mg/kg, mean",8.70 mL/day/kg
same,Cmax,"[3]; single IV 0.3 mg/kg, mean",10.31967 µg/mL
same,Half-life,"[3]; single IV 0.3 mg/kg, mean",65.8 h
same,Vss,"[3]; single IV 0.3 mg/kg, mean",0.03177 L/kg
same,AUC(0-∞),"[3]; single IV 0.3 mg/kg, median",33748.15 ng·days/mL
same,Cl,"[3]; single IV 0.3 mg/kg, median",8.92 mL/day/kg
same,Cmax,"[3]; single IV 0.3 mg/kg, median",10.5375 µg/mL
same,Half-life,"[3]; single IV 0.3 mg/kg, median",65 h
same,Vss,"[3]; single IV 0.3 mg/kg, median",0.03074 L/kg
same,AUC(0-∞),"[3]; single IV 1 mg/kg, mean",156399.94 ng·days/mL
same,Cl,"[3]; single IV 1 mg/kg, mean",6.58 mL/day/kg
same,Cmax,"[3]; single IV 1 mg/kg, mean",29.25183 µg/mL
same,Half-life,"[3]; single IV 1 mg/kg, mean",115 h
same,Vss,"[3]; single IV 1 mg/kg, mean",0.04159 L/kg
same,AUC(0-∞),"[3]; single IV 1 mg/kg, median",166736.58 ng·days/mL
same,Cl,"[3]; single IV 1 mg/kg, median",6.00 mL/day/kg
same,Cmax,"[3]; single IV 1 mg/kg, median",28.2315 µg/mL
same,Half-life,"[3]; single IV 1 mg/kg, median",114 h
same,Vss,"[3]; single IV 1 mg/kg, median",0.04234 L/kg
same,AUC(0-∞),"[3]; single IV 3 mg/kg, mean",709485.10 ng·days/mL
same,Cl,"[3]; single IV 3 mg/kg, mean",4.54 mL/day/kg
same,Cmax,"[3]; single IV 3 mg/kg, mean",96.7115 µg/mL
same,Half-life,"[3]; single IV 3 mg/kg, mean",210 h
same,Vss,"[3]; single IV 3 mg/kg, mean",0.04906 L/kg
same,AUC(0-∞),"[3]; single IV 3 mg/kg, median",728278.54 ng·days/mL
same,Cl,"[3]; single IV 3 mg/kg, median",4.12 mL/day/kg
same,Cmax,"[3]; single IV 3 mg/kg, median",100.6205 µg/mL
same,Half-life,"[3]; single IV 3 mg/kg, median",194 h
same,Vss,"[3]; single IV 3 mg/kg, median",0.04894 L/kg
same,AUC(0-∞),"[3]; single IV 6 mg/kg, mean",1446945.71 ng·days/mL
same,Cl,"[3]; single IV 6 mg/kg, mean",4.33 mL/day/kg
same,Cmax,"[3]; single IV 6 mg/kg, mean",175.85433 µg/mL
same,Half-life,"[3]; single IV 6 mg/kg, mean",201 h
same,Vss,"[3]; single IV 6 mg/kg, mean",0.06045 L/kg
same,AUC(0-∞),"[3]; single IV 6 mg/kg, median",1289916.44 ng·days/mL
same,Cl,"[3]; single IV 6 mg/kg, median",4.65 mL/day/kg
same,Cmax,"[3]; single IV 6 mg/kg, median",177.485 µg/mL
same,Half-life,"[3]; single IV 6 mg/kg, median",186 h
same,Vss,"[3]; single IV 6 mg/kg, median",0.06133 L/kg
same,AUC(0-∞),"[3]; single IV 12 mg/kg, mean",3768691.17 ng·days/mL
same,Cl,"[3]; single IV 12 mg/kg, mean",3.28 mL/day/kg
same,Cmax,"[3]; single IV 12 mg/kg, mean",353.96017 µg/mL
same,Half-life,"[3]; single IV 12 mg/kg, mean",492.7 h
same,Vss,"[3]; single IV 12 mg/kg, mean",0.07225 L/kg
same,AUC(0-∞),"[3]; single IV 12 mg/kg, median",3599992.39 ng·days/mL
same,Cl,"[3]; single IV 12 mg/kg, median",3.36 mL/day/kg
same,Cmax,"[3]; single IV 12 mg/kg, median",357.671 µg/mL
same,Half-life,"[3]; single IV 12 mg/kg, median",293.8 h
same,Vss,"[3]; single IV 12 mg/kg, median",0.05752 L/kg
same,AUC(0-∞),"[3]; single IV 18 mg/kg, mean",4812012.99 ng·days/mL
same,Cl,"[3]; single IV 18 mg/kg, mean",3.85 mL/day/kg
same,Cmax,"[3]; single IV 18 mg/kg, mean",532.44917 µg/mL
same,Half-life,"[3]; single IV 18 mg/kg, mean",311.3 h
same,Vss,"[3]; single IV 18 mg/kg, mean",0.06546 L/kg
same,AUC(0-∞),"[3]; single IV 18 mg/kg, median",4857618.28 ng·days/mL
same,Cl,"[3]; single IV 18 mg/kg, median",3.71 mL/day/kg
same,Cmax,"[3]; single IV 18 mg/kg, median",560.4635 µg/mL
same,Half-life,"[3]; single IV 18 mg/kg, median",282.2 h
same,Vss,"[3]; single IV 18 mg/kg, median",0.06083 L/kg
